Laboratory results published in US20220162310A1 (GREEN CROSS, published 2022).
Where two headings read alike, the source gives them in different places.

T1: TIGIT on thaw-and-use TIGIT effector cells (TIGIT/CD155 blockade bioassay kit, Promega J2305) (UniProt Q495A1 22-244, limits assumed)
T1 sequence (looked up): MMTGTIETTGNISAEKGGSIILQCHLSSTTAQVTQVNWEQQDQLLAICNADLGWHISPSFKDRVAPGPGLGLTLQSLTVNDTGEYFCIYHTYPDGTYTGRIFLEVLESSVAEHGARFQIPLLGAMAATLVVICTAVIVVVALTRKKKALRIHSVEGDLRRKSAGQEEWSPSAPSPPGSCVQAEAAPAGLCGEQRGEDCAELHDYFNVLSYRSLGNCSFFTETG

T2: human TIGIT-His antigen (human, UniProt Q495A1 22-141)
T2 construct: not shown: His tag
T2 chain: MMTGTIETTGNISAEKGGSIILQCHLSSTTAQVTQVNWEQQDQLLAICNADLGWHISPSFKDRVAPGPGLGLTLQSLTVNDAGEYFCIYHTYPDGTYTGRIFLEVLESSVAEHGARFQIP

T3: mouse TIGIT on transfected HEK293 cells (mouse, UniProt P86176 29-249)
T3 construct: whole, on cells; GFP-expressing cells were gated; also called TIGIT of mice
T3 sequence (looked up): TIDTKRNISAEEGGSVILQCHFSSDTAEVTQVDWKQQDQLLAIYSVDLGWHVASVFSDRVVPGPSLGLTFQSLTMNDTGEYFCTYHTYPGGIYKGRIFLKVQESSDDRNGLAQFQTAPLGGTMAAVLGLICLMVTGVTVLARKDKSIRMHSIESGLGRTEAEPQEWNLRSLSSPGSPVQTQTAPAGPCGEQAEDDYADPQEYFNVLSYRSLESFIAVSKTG

T4: human TIGIT-Fc antigen (human, UniProt Q495A1 22-141)
T4 construct: not shown: Fc part
T4 chain: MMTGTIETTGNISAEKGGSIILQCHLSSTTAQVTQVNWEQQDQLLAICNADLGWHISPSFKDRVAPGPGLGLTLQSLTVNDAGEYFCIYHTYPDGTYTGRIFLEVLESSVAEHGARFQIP

T5: TIGIT on the TIGIT-overexpressing Jurkat cell line (Jurkat-TIGIT) (Homo sapiens (Human), UniProt Q495A1 22-244)
T5 construct: Jurkat E6.1 cells transfected with 'TIGIT cDNA'; also called TIGIT expressed on the cell surface
T5 sequence: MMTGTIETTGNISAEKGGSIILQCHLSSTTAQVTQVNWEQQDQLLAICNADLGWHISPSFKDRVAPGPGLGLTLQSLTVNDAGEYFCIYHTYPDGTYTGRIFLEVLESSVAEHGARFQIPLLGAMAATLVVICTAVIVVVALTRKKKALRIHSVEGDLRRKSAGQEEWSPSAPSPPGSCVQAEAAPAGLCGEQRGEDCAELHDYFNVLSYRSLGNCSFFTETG


Tests used:
[1] = biological target: T1, TIGIT on thaw-and-use TIGIT effector …; assay: cell-based or functional assay
[2] = biological target: T2, human TIGIT-His antigen; assay: SPR (Biacore), antibody captured on an anti-protein A CM5 chip, TIGIT-HIS as analyte in 1/2 serial dilution, contact 120 s, dissociation 600 s
Procedure: (§1) 10 μg/ml of anti-protein A was prepared by diluting the same in an acetate 4.0 buffer. 100 nM NHS, 400 mM EDC and 1 M ethanolamine were prepared. The sensor chip used herein was a CM5. The contact time was set at 300s (5 min), the flow rate was set at 5 μg/ml, and the immobilization level was set at 2,500 RU. After performing running, whether the RU reached the target level was monitored in the system control window.
(§2) When running was completed, ka, kd, and KD were obtained by fitting using evaluation software.

[3] = biological target: T3, mouse TIGIT on transfected HEK293 cells; assay: flow cytometry on HEK293 cells transfected with mouse TIGIT
Procedure: The result was washed once with PBS, and then the cells were resuspended in FACS buffer to a concentration of 5×10⁵ cells/100 μl. 1 μl of a human Fc block solution was added to each sample and reacted at 4° C. for 10 minutes. […] The result was centrifuged in 200 μl of FACS buffer at 1,200 rpm for 5 minutes to remove the supernatant. The cells were resuspended in 300 μl of fixation buffer. The cells expressing GFP were screened using a FACS LSR-Fortessa instrument, and TIGIT candidate antibodies were identified using a PE fluorescence channel and analyzed using FlowJo software.

[4] = biological target: T2, human TIGIT-His antigen; assay: SPR (Biacore), antibody (1G8 IgG4) captured on an anti-protein A CM5 chip, TIGIT-HIS as analyte in 1/2 serial dilution, contact 120 s, dissociation 600 s
Procedure: as §1, §2

[5] = biological target: T4, human TIGIT-Fc antigen; assay: ELISA, IgG titrated on plate-coated human TIGIT-Fc
Procedure: (§3) 50 μl of the human TIGIT-Fc antigen was added at a concentration of 3 μg/ml to an ELISA plate, incubated at 4° C. overnight, and then blocked with 1% BSA in PBS at room temperature for 2 hours. […] The result was washed 3 times with PBST (0.05% Tween 20 in PBS), and 50 μl of anti-His-HRP was diluted 1/1000 in PBS and then reacted at room temperature for 1 hour. The result was washed 3 times with PBST (0.05% Tween 20 in PBS), and 50 μl of a TMB solution was added thereto. The result was allowed to react at room temperature for 5 minutes, 50 μl of a TMB stop solution was added thereto, and the absorbance was measured at 450 nm in an ELISA leader.

[6] = biological target: T4, human TIGIT-Fc antigen; assay: ELISA, IgG titrated on plate-coated human TIGIT-Fc
Procedure: as §3

[7] = biological target: T1, TIGIT on thaw-and-use TIGIT effector …; assay: cell-based or functional assay; remark: listed apart in the source
[8] = biological target: T5, TIGIT on the TIGIT-overexpressing …; assay: competition in flow cytometry: Jurkat-TIGIT cells preloaded with PVR-Fc, then antibody; PVR left on the cells detected with anti-PVR-PE, MFI falls with the antibody concentration; the sheet calls the half-maximal value EC50
Procedure: The TIGIT-overexpressing cell line (Jurkat-TIGIT) was resuspended in DPBS supplemented with 2% (v/v) FBS (hereinafter, FACS buffer), centrifuged at 1,500 rpm, and resuspended in FACS buffer so that the number of cells was 3×10⁶ cells/ml, and 100 μl of the suspension was added to each well of a U-bottom 96-well plate. Then, the cells and culture solution of each well were recovered and centrifuged at 1,500 rpm, and then the supernatant was discarded.
This series of processes was repeated twice. […] This series of processes was repeated twice. […] This series of processes was repeated twice. […] The cells reacted with the fixation buffer were recovered, resuspended in FACS buffer, and centrifuged at 1,500 rpm, the supernatant was discarded, and the residue was washed. This series of processes was repeated twice. The washed cells were resuspended in 200 μl of FACS buffer. Then, the median fluorescence intensity (MFI) of PE with which the cells were labeled was compared using a FACS LSR-Fortessa instrument. All FACS analysis was performed using FlowJo software.

[9] = biological target: T2, human TIGIT-His antigen; assay: Octet (BLI), human TIGIT-HIS on penta-His sensor, antibody in solution
Procedure: A 5 μg/ml of human TIGIT-HIS was prepared by diluting the same in a 1×KB buffer. Anti-human TIGIT antibodies were prepared through ½ serial dilution with 1×KB buffer from a starting concentration of 100 nM.

[10] = biological target: T5, TIGIT on the TIGIT-overexpressing …; assay: flow cytometry on Jurkat-TIGIT cells, antibody 25 to 0.00032 ug/ml, PE goat anti-human Fab'2, MFI
Procedure: The cells were resuspended in FACS buffer so that the number of cells was 3×10⁶ cells/ml, and 100 μl of the suspension was added to each well of a U-bottom 96-well plate. Then, the cells and culture solution of each well were recovered and centrifuged at 1,500 rpm, and then the supernatant was discarded. […] This series of processes was repeated twice. Phycoerythrin (hereinafter, referred to as “PE”)-conjugated goat anti-human Fab′2 (Sigma; Cat. #P8047) was diluted in FACS buffer at a volume ratio of 1:500, 100 μl thereof was added to each well, and the reaction was allowed to proceed in the dark at 4° C. for 30 minutes. The cells reacted with PE were recovered, resuspended in FACS buffer, and centrifuged at 1,500 rpm, the supernatant was discarded, and the residue was washed. This series of processes was repeated twice. […] The cells reacted with the fixation buffer were recovered, resuspended in FACS buffer, and centrifuged at 1,500 rpm, the supernatant was discarded, and the residue was washed. This series of processes was repeated twice. The washed cells were resuspended in 200 μl of FACS buffer, and then the median fluorescence intensity (MFI) of PE with which the cells were labeled was compared using a FACS LSR-Fortessa instrument. All FACS analysis was performed using FlowJo software.

[11] = biological target: T2, human TIGIT-His antigen; assay: SPR (Biacore), antibody (WIN-1B6 IgG4) captured on an anti-protein A CM5 chip, TIGIT-HIS as analyte in 1/2 serial dilution, contact 120 s, dissociation 600 s
Procedure: as §1, §2

Row | Binder | EC50 of bioluminescence (RLU), TIGIT/CD155 blockade bioassay: TIGIT effector cells with CD155 aAPC/CHO-K1 cells [1] [nM] | Kd [2] [nM] | koff [2] [s⁻¹] | kon [2] [M⁻¹ s⁻¹] | binding result [3] | Kd [4] [nM] | koff [4] [s⁻¹] | kon [4] [M⁻¹ s⁻¹] | EC50 [5] [nM] | EC50 [6] [nM] | EC50 of T-cell activation (luminescence, TIGIT/CD155 blockade bioassay with TIGIT effector cells and CD155 aAPC/CHO-K1 cells) [7] [nM] | EC50 [8] [µg/mL] | Kd [9] [nM] | koff [9] [s⁻¹] | kon [9] [M⁻¹ s⁻¹] | EC50 [10] [µg/mL] | Kd [11] [nM] | koff [11] [s⁻¹] | kon [11] [M⁻¹ s⁻¹]
1 | reference antibody (anti-TIGIT) (antibody, V domains shown) VH: EVQLQQSGPGLVKPSQTLSLTCAISGDSVSSNSAAWNWIRQSPSRGLEWLGKTYYRFKWYSDYAVSVKGRITINPDTSKNQFSLQLNSVTPEDTAVFYCTRESTTYDLLAGPFDYWGQGTLVTVSS VL: not shown | 6.1 | 0.375 | 0.000233 | 622000 | – | – | – | – | – | – | – | – | – | – | – | – | – | – | –
2 | WIN_1B6 (IgG-type anti-TIGIT antibody) (antibody, V domains shown, section 4.2 is headed 'Conversion to IgG4-Type Anti-TIGIT Antibodies') VH: QVQLVQSGAEVKKPGASVKVSCKASGYTFTSYGISWVRQAPGQGLEWMGWISAYNGNTNYAQKLQGRVTMTTDTSTSTAYMELRSLRSDDTAVYYCARAGWEQQLGFDYWGQGTLVTVSS VL: AIQLTQSPSSLSASVGDRVTISCRASQTIRSYLNWYQQKPGKAPKLLIYAASSLQSGVPLRFSGSGSGTDFTLTISSLQPEDFATYYCQQSYSTLPLTFGGGTKVEIKR | 11.8 | – | – | – | no binding (tested: 1 µg/5×10^5 cells) | – | – | – | 0.86 | – | – | 0.068 | 0.443 | 0.000206 | 465000 | 0.016 | 21.4 | 0.0245 | 1.15e+06
3 | WIN_1D2 (IgG-type anti-TIGIT antibody) (antibody, V domains shown, section 4.2 is headed 'Conversion to IgG4-Type Anti-TIGIT Antibodies') VH: QVQLVQSGAEVKKPGASVKVSCKASGYTFTSYGISWVRQAPGQGLEWMGWISAYNGNTNYAQKLQGRVTMTTDTSTSTAYMELRSLRSDDTAVYYCARAGWEQQLGFDYWGQGTLVTVSS VL: AIQLTQSPSSLSASVGDRVTITCRASQSISSYLNWYQQKPGKAPKLLIYAASSLQSGVPSRFSGSGSGTDFTLTISSLQPEDFATYYCQQSYSTLAITFGQGTRLEIKR | 27.3 | – | – | – | no binding (tested: 1 µg/5×10^5 cells) | – | – | – | 1.75 | ~1 | – | 0.071 | 0.571 | 0.000278 | 488000 | 0.017 | – | – | –

Continued, values first:

Row | EC50 of bioluminescence (RLU), TIGIT/CD155 blockade bioassay: TIGIT effector cells with CD155 aAPC/CHO-K1 cells [1] [nM] | Kd [2] [nM] | koff [2] [s⁻¹] | kon [2] [M⁻¹ s⁻¹] | binding result [3] | Kd [4] [nM] | koff [4] [s⁻¹] | kon [4] [M⁻¹ s⁻¹] | EC50 [5] [nM] | EC50 [6] [nM] | EC50 of T-cell activation (luminescence, TIGIT/CD155 blockade bioassay with TIGIT effector cells and CD155 aAPC/CHO-K1 cells) [7] [nM] | EC50 [8] [µg/mL] | Kd [9] [nM] | koff [9] [s⁻¹] | kon [9] [M⁻¹ s⁻¹] | EC50 [10] [µg/mL] | Kd [11] [nM] | koff [11] [s⁻¹] | kon [11] [M⁻¹ s⁻¹] | Binder
4 | – | – | – | – | no binding (tested: 1 µg/5×10^5 cells) | 0.59 | 0.001 | 1.78e+06 | 1.63 | ~1 | 2.1 | 0.093 | 0.224 | 9.32e-05 | 415000 | 0.017 | – | – | – | 1G8 (IgG-type anti-TIGIT antibody) (antibody, V domains shown, section 4.2 is headed 'Conversion to IgG4-Type Anti-TIGIT Antibodies'; also called TIGIT candidate antibody (1G8)) VH: EVQLVQSGAEVKKPGASVKVSCKASGYTFTSYYMHWVRQAPGQGLEWMGIINPSGGSTSYAQKFQGRVTMTRDTSTSTVYMELSSLRSEDTAVYYCASRSGSGWFGALDYWGQGTLVTVSS VL: not shown
5 | 35.7 | – | – | – | no binding (tested: 1 µg/5×10^5 cells) | – | – | – | 5.35 | – | – | 0.38 | 1.32 | 0.000232 | 176000 | 0.08 | – | – | – | 1F10 (IgG-type anti-TIGIT antibody) (antibody, V domains shown, section 4.2 is headed 'Conversion to IgG4-Type Anti-TIGIT Antibodies') VH: EVQLVESGGGLVKPGGSLRISCAASGFTFSNYNMIWVRQAPGKGLEWVSSISSSASYIYYADSVKGRFTISRDNAKNSLYLQMNSLRAEDTAVYYCARDEGSRDSWNNGPYYYSGMDVWGQGTTVTVSS VL: AIQMTQSPSSLSASVGDRVTITCRASQSISRYLNWYQHKPGKAPKLLIYGASSLQSGVPSRFRGSGSGTDFTLTISSLQPEDFATYYCQQSYTTPGAFTFGGGTKVEIKR
6 | 19.1 | – | – | – | no binding (tested: 1 µg/5×10^5 cells) | – | – | – | 1.73 | ~1 | – | 0.102 | 0.937 | 0.000528 | 563000 | 0.021 | – | – | – | 1E8 (IgG-type anti-TIGIT antibody) (antibody, V domains shown, section 4.2 is headed 'Conversion to IgG4-Type Anti-TIGIT Antibodies') VH: QVQLVQSGTEVKKPGASVKVSCKASGYTFSSYAITWVRQAPGQGLEWMGWISAYNGNTNYAQKLQGRVTMTTDTSTSTAYMELRSLRSDDTAVYYCARVDFWSGYNYFDYWGQGTLVTVSS VL: DIQMTQSPSSLSASVGDRVTITCRASQGISNYLAWYQQKPGKVPKVLIYAASTLQSGVPSRFSGSGSGTDFTLTISSLQPEDVATYYCQKSNSAPLTFGGGTKVEIKR
